# Measured values published in patent US20160060347A1 (MorphoSys, published 2016).
# Changes are numbered by the printed parent chain. Where no end group is shown, it is not given here.
# T1: peptide derived of extracellular domain three (human, coupled to a carrier protein (BSA or transferrin, not stated which))
# T1 construct: also called ECL3 peptide
# T1 peptide: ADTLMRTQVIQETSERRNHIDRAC
# T2: N-Terminal Peptide aa1-17 (Transferrin- or BSA-Coupled) (human, also: coupled to carrier protein (BSA or transferrin), site not given here)
# T2 peptide: MEDFNMESDSFEDFWKGC
# T3: human CXCR2 (human, UniProt P25025 1-360)
# T3 construct: Expressed on Flp-In CHO cells (FACS, Fab-ZAP, ADCC, CDC) or on bought PathHunter CHO cells (beta-arrestin assay); the construct in the PathHunter cells is not described; also called chemokine receptor CXCR2; CXCR2 CHO Flp-In cells
# T3 sequence: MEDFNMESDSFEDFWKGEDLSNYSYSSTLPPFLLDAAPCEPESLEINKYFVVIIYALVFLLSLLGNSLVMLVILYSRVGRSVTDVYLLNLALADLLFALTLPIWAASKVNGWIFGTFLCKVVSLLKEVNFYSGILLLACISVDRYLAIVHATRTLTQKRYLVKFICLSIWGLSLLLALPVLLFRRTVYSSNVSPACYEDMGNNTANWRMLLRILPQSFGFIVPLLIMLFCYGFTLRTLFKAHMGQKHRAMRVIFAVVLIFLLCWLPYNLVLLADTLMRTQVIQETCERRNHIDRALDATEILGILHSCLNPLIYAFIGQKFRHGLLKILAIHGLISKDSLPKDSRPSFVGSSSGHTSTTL
# B1: CX2-Mab #3.1 (antibody, IgG1, V domains shown)
# VH: QVQLLESGGGLVQPGGSLRLSCAASGFTFSSYWMSWVRQAPGKGLEWVSVISYSGSETFYADSVKGRFTISRDNSKNTLYLQMNSLRAEDTAVYYCARGRVGYAFDYWGQGTLVTVSS
# VL: DIVLTQPPSVSGAPGQRVTISCSGSSSNIGVNYVNWYQQLPGTAPKLLIYSNNQRPSGVPDRFSGSKSGTSASLAITGLQAEDEADYYCQTRAVHFARVVFGGGTKLTVLG
# B2: CX2-Mab #1.5 (antibody, IgG1, V domains shown)
# VH: QVQLVQSGAEVKKPGSSVKVSCKASGGTFSSYAISWVRQAPGQGLEWMGGIIPIVGEAKYAQKFQGRVTITADESTSTAYMELSSLRSEDTAVYYCARDSSGYDGYYAFAYWGQGTQVTVSS
# VL: DIVLTQPPSVSGAPGQRGTISCSGSSSNIGSSSVNWYQQLPGTAPKLLIYRNNQRPSGVPDRFSGSKSGTSASLAITGLQAEDEADYYCASTDSQWRQIVFGGGTKLTVLG
# B3: CX2-Mab #2 (Fab format) (Fab, V domains shown)
# VH: QVQLVQSGAEVKKPGASVKVSCKASGYTFSRYAMHWVRQAPGQGLEWMGVINPYNGNTRYAQKFQGRVTMTRDTSISTAYMELSRLRSEDTAVYYCARGSHIQAGAFDYWGQGTLVTVSS
# VL: DIQMTQSPSSLSASVGDRVTITCRASQGINNRLNWYQQKPGKAPKLLIYDGSSLQSGVPSRFSGSGSGTDFTLTISSLQPEDFATYYCQQYIHFPVTFGQGTKVEIKR
# B4: CX2-Mab #5 (Fab format) (Fab, V domains shown)
# VH: EVQLLESGGGLVQPGGSLRLSCAASGFTFNSNAMSWVRQAPGKGLEWVSFISYSGSHTYYADSVKGRFTISRDNSKNTLYLQMNSLRAEDTAVYYCARYTRFLSRPAFDPWGQGTLVTVSS
# VL: DIVLTQPPSVSGAPGQRVTISCTGSSSNIGAGYDVHWYQQLPGTAPKLLIYYNSKRPSGVPDRFSGSKSGTSASLAITGLQAEDEADYYCGAYDRKMNSYVFGGGTKLTVLG
# B5: CX2-Mab #3 (Fab format) (Fab, V domains shown)
# VH: B1 VH with Q1E
# VL: B1 VL with T91S, V94S, H95G, A97Y, R98S
# B6: CX2-Mab #1 (Fab format) (Fab, V domains shown)
# VH: B2 VH
# VL: B2 VL with A90G, S91A, S94F, Q95S, W96A, R97N, I99V
# B7: CX2-Mab #4 (Fab format) (Fab, V domains shown)
# VH: EVQLLESGGGLVQPGGSLRLSCAASGFTFSSNGMSWVRQAPGKGLEWVSAISSSGSKTYYADSVKGRFTISRDNSKNTLYLQMNSLRAEDTAVYYCARGYGFDVWGQGTLVTVSS
# VL: DIVLTQPPSVSGAPGQRVTISCSGSSSNIGVNIVNWYQQLPGTAPKLLIYSTSNRPSGVPDRFSGSKSGTSASLAITGLQAEDEADYYCATRDGISKSVVFGGGTKLTVLG
# B8: CX2-Mab #6 (Fab format) (Fab, V domains shown)
# VH: EVQLLESGGGLVQPGGSLRLSCAASGFTFSSYTMSWVRQAPGKGLEWVSAIHSSGSSTYYADSVKGRFTISRDNSKNTLYLQMNSLRAEDTAVYYCARVPAYYGFDHWGQGTLVTVSS
# VL: DIELTQPPSVSVSPGQTASITCSGDSLGAFYVHWYQQKPGQAPVLVIYRTNNRPSGIPERFSGSNSGNTATLTISGTQAEDEADYYCASYASRNRVFGGGTKLTVLG
# Target: T4, hu_CXCR2_N-term (1-17)-BSA (human; bovine, coupled to carrier protein BSA; C-terminal cysteine introduced to enable coupling)
# T4 construct: Synthetic linear peptide chemically coupled to the carrier; also called CXCR2_aa1-17_BSA; CXCR2 aa1-17 BSA
# Assay: ELISA, coated peptide-BSA, IgG1
# Protocol: (§1) 384-well Maxisorp plates (Nunc; Cat. #460518) were coated with respective CXCR2 and control peptides coupled either to BSA or Transferrin (TRF) at 1-5 μg/mL and incubated o/n at 4° C. […] After three washing steps, antibodies were added at 5-10 μg/mL and titrated in some experiments. Antibodies were incubated 1 h at room temperature and plates were subsequently washed. Binding of anti-CXCR2 antibodies was detected by using alkaline phosphatase-conjugated anti-human IgG, (Dianova, Cat #109-055-097). AttoPhos fluorescence substrate (Roche, Cat #1484281) was added according to instructions of the manufacturer and fluorescence was measured (excitation at 430 nm, emission at 535 nm) using a microplate reader.
# T4 sequence (P02769 25-607 limits assumed): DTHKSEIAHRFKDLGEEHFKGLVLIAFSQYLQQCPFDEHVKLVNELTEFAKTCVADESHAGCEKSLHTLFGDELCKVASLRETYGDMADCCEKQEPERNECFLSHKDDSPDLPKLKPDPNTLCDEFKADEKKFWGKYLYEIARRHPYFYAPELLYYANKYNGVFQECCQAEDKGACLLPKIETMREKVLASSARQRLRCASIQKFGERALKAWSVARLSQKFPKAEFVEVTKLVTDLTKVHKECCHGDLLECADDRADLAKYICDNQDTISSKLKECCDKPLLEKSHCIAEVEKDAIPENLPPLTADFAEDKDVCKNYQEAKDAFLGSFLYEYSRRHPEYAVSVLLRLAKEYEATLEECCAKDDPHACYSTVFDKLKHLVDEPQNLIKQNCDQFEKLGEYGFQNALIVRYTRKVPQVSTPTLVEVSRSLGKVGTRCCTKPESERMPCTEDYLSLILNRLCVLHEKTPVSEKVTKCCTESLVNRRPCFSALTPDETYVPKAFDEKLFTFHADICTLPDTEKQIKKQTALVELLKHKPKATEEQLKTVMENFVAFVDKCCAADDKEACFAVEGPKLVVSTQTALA
row,binding result,Binder
1,binds,B1
2,binds,B2

# Target: T5, N-terminal peptide aa1-48, BSA-coupled (human; bovine, coupled to carrier protein BSA; C-terminal cysteine introduced to enable coupling)
# T5 construct: also called CXCR2 aa1-48 BSA
# Assay: ELISA, coated peptide-BSA, IgG1
# Protocol: as §1
# T5 sequence (P02769 25-607 limits assumed): as above
row,binding result,Binder
1,binds,B1
2,binds,B2

# Target: T6, ECL3 peptide aa273-295, BSA-coupled (human; bovine, coupled to carrier protein BSA; C-terminal cysteine introduced to enable coupling)
# T6 construct: also called CXCR2 aa273-295 BSA; peptides representing the extracellular domain 3
# Assay: ELISA, coated peptide-BSA, IgG1
# Protocol: as §1
# T6 sequence (P02769 25-607 limits assumed): as above
row,binding result,Binder
1,binds,B1
2,binds,B2

# Target: T4, hu_CXCR2_N-term (1-17)-BSA
# Assay: ELISA, coated peptide-BSA, Fab
# Protocol: as §1
# (§2) The Fabs were further tested including affinity determination via BiaCore, EC₅₀ determination in ELISA and FACS, as well as the evaluation of cellular cytotoxicity via secondary immunotoxin (Saporin) upon antibody internalization (Fab-ZAP). Respective experimental settings as outlined in Example 3 were used.
row,EC50 [nM],Binder
1,3.6,B3
2,0.6,B4
3,4.7,B5
4,6.1,B6
5,0.8,B7
6,1.3,B8

# Target: T1, peptide derived of extracellular domain …
# Assay: ELISA, Fab
# Protocol: as §1, §2
row,binding result,Binder
1,no binding,B3
2,no binding,B4
3,no binding,B5
4,no binding,B6
5,no binding,B7
6,no binding,B8

# Target: T7, hu_CXCR2_N-term (1-17)-Trf (human, coupled to carrier protein human transferrin; C-terminal cysteine introduced to enable coupling)
# T7 construct: Synthetic linear peptide chemically coupled to the carrier; also called CXCR2_aa1-17_TRF; N-terminal peptide aa1-17, Transferrin-coupled
# Assay: ELISA, coated peptide-TRF, Fab
# Protocol: as §1, §2
# T7 sequence (P02787 20-698 limits assumed): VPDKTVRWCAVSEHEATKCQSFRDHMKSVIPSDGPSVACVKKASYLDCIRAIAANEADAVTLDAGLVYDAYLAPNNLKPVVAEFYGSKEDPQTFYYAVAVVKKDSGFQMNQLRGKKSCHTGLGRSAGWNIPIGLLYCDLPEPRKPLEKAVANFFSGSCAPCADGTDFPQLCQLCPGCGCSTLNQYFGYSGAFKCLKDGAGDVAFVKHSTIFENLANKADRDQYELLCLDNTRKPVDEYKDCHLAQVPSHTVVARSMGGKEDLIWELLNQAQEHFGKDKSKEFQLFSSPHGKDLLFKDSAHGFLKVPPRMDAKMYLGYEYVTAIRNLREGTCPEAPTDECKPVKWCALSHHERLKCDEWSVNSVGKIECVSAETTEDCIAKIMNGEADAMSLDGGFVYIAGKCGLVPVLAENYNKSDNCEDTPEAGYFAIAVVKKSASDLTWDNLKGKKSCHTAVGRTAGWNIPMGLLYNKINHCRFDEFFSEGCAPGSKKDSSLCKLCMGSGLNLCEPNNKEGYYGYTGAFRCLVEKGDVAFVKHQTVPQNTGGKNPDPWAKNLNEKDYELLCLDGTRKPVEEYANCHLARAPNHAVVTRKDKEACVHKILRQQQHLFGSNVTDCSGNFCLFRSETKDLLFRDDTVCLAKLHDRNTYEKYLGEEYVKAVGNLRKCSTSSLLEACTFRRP
row,EC50 [nM],Binder
1,1.3,B3
2,0.5,B4
3,2,B5
4,1,B6
5,0.4,B7
6,0.5,B8

# Target: T4, hu_CXCR2_N-term (1-17)-BSA
# Assay: SPR (Biacore), peptide-BSA immobilized, Fab analyte, steady-state fit
# Protocol: (§3) Affinities (KD values) were determined using SPR (Biacore T200, GE Healthcare) using the following setup: The antigens (hu_CXCR2_N-term (1-17)-BSA, or hu_CXCR2_N-term (1-17)-Trf, respectively) were covalently coupled to a CM5 sensor chip using NHS/EDC chemistry. Antigens were diluted in 10 mM Acetate pH4.5 to a concentration of approx. 100 μg/mL. The final immobilization level was approx. 400 RU for the BSA-coupled peptide and 200 RU for the TRF-coupled peptide. HBS-EP pH7 was used as running buffer throughout the experiment at a flow rate of 30 μL/min. Fab fragments were used as samples (monomer portion at least 90% as determined by HP-SEC, Superdex 75 PC3.2/30 (GE Healthcare). Of each sample, a 2n serial dilution row from 31.25-1000 nM was prepared (6 concentrations) and injected, followed by a blank injection, which was later used for double referencing. Association of Fab samples was recorded for 240 s, and dissociation was monitored for 300 s. At the end of each cycle bound (Fab−) sample was removed from the sensor with one 30 s injection of MgCl2 (3M).
# (§4) Most of the recorded binding curves deviated from the expected bimolecular binding model (1:1), but the sensorgrams seemed to reach equilibrium towards the late association phase. Therefore, the binding data (report point late association) was fitted to a steady state model. The Req vs. concentration plots/fits followed the assumed one-binding-site model, and the resulting KD were reported. EC50 values determined by ELISA were in the single digit nanomolar range on N-terminal CXCR2 peptides. […] Respective results of selected 6 Fabs are summarized in Table 1 (data of one representative experiments are shown).
row,Kd [nM],Binder
1,221,B3
2,146,B4
3,393,B5
4,534,B6
5,143,B7
6,353,B8

# Target: T2, N-Terminal Peptide aa1-17 (Transferrin- …)
# Assay: initial screening, Fab; carrier of the peptide not stated
row,signal over background [fold],Binder
1,≥ 5,B3
2,≥ 5,B4
3,≥ 5,B5
4,≥ 5,B6
5,≥ 5,B7
6,≥ 5,B8

# Target: T3, human CXCR2
# Assay: FACS, CXCR2 CHO Flp-In cells, Fab
# Protocol: (§5) Human CXCR2-expressing Flp-In™ CHO cells were harvested at ˜80% confluence washed once with PBS (Gibco, Cat #14190-094) and detached using Versene (Invitrogen, Cat #15040-033). Subsequently, cells were counted and centrifuged at 250×g for 5 min at 4° C. Afterwards, cells were diluted in Superblock (Thermo Fisher Perbio Science, Cat #37515) to a cell concentration of 2E+05-1E+06/mL and 100 μL/well were transferred to 96-well microtiter plate (Nunc, Cat#163320). Cells were once centrifuged, supernatant discarded and antibodies added at 1 μg/mL (unless stated otherwise), incubated for 1 h at 4° C. and washed twice with FACS buffer (PBS/3% FCS/0.02% NaN3). Binding of anti-CXCR2 antibodies was detected by incubation of Phycoerythrin-conjugated anti-human IgG (Dianova, Cat #109-116-097) for 1 h at 4° C. Samples were subsequently measured using FACS Array (Becton Dickinson).
# as §2
row,EC50 [nM],Binder
1,> 6000,B3
2,> 6000,B4
3,105,B5
4,365,B6
5,136,B7
6,195,B8

# Target: T3, human CXCR2
# Assay: FACS, CXCR2 CHO Flp-In cells, IgG1
# Protocol: as §5
row,binding result,Binder
1,binds,B1
2,binds,B2

# Target: T7, hu_CXCR2_N-term (1-17)-Trf
# Assay: SPR (Biacore), peptide-TRF immobilized, Fab analyte, steady-state fit
# Protocol: as §3, §4
row,Kd [nM],Binder
1,210,B3
2,149,B4
3,317,B5
4,269,B6
5,101,B7
6,251,B8
